Experimental data from patent publication US20170088624A1 (Janssen / Centocor, published 2017).
Residue numbers refer to the chain shown, from its start.

T1: cyno CD40 (SPR analyte) (Macaca fascicularis (cynomolgus), UniProt P25942 21-193 (human entry), limits assumed)
T1 construct: also called cCD40-ECD
T1 chain: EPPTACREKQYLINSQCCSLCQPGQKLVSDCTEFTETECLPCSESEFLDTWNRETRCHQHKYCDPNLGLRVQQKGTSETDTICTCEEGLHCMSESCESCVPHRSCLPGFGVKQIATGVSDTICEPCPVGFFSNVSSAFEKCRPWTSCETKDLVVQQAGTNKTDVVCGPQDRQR

T2: Macaca fascicularis (cyno) CD40 (cCD40) on cells (Macaca fascicularis (cynomolgus), UniProt P25942 21-277 (human entry))
T2 construct: CD40 on cyno mature DCs
T2 chain: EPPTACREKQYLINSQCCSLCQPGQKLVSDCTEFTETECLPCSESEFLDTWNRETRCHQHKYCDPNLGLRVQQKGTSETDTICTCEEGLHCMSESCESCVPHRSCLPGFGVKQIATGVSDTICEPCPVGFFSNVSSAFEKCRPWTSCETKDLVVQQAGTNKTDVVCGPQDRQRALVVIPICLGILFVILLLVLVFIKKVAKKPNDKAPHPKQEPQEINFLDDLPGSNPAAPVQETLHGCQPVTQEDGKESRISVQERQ

B1: C40M17 (antibody, human IgG1, lambda, V domains shown)
VH: EVQLVESGGGLVQPGGSLRLSCAASGFTFSSYAMSWVRQAPGRGLEWVSTINNSGGGTYYADSVKGRFTISRDNSKNTLYLHMNSLRAEDTAVYYCAKEGGKYYYYAMDVWGQGTTVTVSS
VL: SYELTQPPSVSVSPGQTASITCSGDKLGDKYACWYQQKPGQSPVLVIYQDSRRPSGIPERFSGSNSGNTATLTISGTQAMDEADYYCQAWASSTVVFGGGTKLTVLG
notes: Full-length IgG1/lambda; from OmniRat (OMT)
B2: C40M63 (antibody, human IgG1, kappa, V domains shown)
VH: QVQLVQSGAEVKKPGSSVKVSCKASGGTFSSYAISWVRQAPGQGLEWMGGIIPIFGTANYAQKFQGRVTITADESTSTAYMELSSLRSEDTAVYYCARVGHPAWWRDSLDYWGQGTLVTVSS
VL: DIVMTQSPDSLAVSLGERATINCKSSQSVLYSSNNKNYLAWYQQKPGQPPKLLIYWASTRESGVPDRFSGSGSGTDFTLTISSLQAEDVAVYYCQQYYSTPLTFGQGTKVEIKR
notes: Full-length IgG1/kappa; from phage display
B3: C40M66 (antibody, human IgG1, kappa, V domains shown)
VH: B2 VH with G100R, H101Y, P102S, W105Y
VL: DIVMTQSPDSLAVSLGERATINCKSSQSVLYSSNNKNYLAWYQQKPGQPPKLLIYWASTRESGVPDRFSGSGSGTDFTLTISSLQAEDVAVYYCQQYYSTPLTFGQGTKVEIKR
notes: as for B2
B4: C40M62 (antibody, human IgG1, kappa, V domains shown)
VH: B2 VH with G100A, H101N, P102A, W104Y, W105F, D107S, S108G
VL: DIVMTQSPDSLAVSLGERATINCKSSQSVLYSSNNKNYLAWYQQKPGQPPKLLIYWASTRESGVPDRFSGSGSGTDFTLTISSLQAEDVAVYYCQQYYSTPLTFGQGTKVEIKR
notes: as for B2

Assays:
[1] = target: T3, Full length human CD40 (huCD40) on cells (human, UniProt P25942 21-277); test: cell-based or functional assay
[2] = target: T3, Full length human CD40 (huCD40) on cells; test: cell-based or functional assay; remark: listed apart in the source
human CD40 (SPR analyte) = target: T4, human CD40 (SPR analyte) (human, UniProt P25942 21-193); test: SPR ProteOn XPR36, mAb captured by anti-human IgG Fc, CD40 as analyte, 25 C
T4 construct: also called huCD40-ECD
Procedure: (§1) Affinity measurements were performed using Surface Plasmon Resonance (SPR) using a ProteOn XPR36 system (BioRad). […] Approximately 5000 RU (response units) of mAbs were immobilized. The kinetic experiments were performed at 25° C. in running buffer (DPBS+0.01% P20+100 μg/ml BSA). To perform kinetic experiments, 200 RU of mAbs were captured followed by injections of analytes (human or cyno CD40) at 5 concentrations (in a 4-fold serial dilution). The association phase was monitored for 3 minutes at 50 μL/min, then followed by 15 minutes of buffer flow (dissociation phase). The chip surface was regenerated with two 18 second pulses of 100 mM H₃PO₄ (Sigma, Cat#7961) at 100 μL/min.
(§2) The collected data were processed using ProteOn Manager software. First, the data was corrected for background using inter-spots. Then, double reference subtraction of the data was performed by using the buffer injection for analyte injections. The kinetic analysis of the data was performed using a Langmuir 1:1 binding model. The result for each mAb was reported in the format of Ka (On-rate), Kd (Off-rate) and KD (equilibrium dissociation constant).
(§3) The parameters reported in this table were obtained from a 1:1 Langmuir binding model for all samples. Affinity, KD=kd/ka.

[3] = target: T3, Full length human CD40 (huCD40) on cells; test: flow cytometry, HEK-Blue CD40L cells
[4] = target: T3, Full length human CD40 (huCD40) on cells; test: flow cytometry, human mature DCs
Procedure: (§4) Human monocytes were isolated from either frozen/fresh PBMC using CD14 negative isolation kit per manufacturer's protocol (MACS Miltenyi). Cyno monocytes were isolated from fresh PBMC using CD14 positive isolation kit per manufacturer's protocol (MACS Miltenyi). To generate DCs, monocytes were cultured for 5 days in complete media RPMI (Invitrogen) in the presence of 100 ng/ml human GM-CSF and human IL-4 (Peprotech) and media was replenished every 2 days. On day 5, DCs were stimulated with 100 ng/ml LPS (Sigma) for 24 hours. Cells were then stained with each of the tested CD40 antibody at different concentration in flow cytometry buffer (PBS+1% FBS; BD Bioscience) in 100 μl volume for 30 minutes on ice followed with two washes with flow buffer. Cells were then stained for additional 30 minutes on ice with APC-conjugated anti human IgG (Jackson ImmunoResearch) at the recommended dilution 1:100 and washed twice with flow buffer. Cells were analyzed for percent positive and Mean Fluorescence Intensity (MFI) to determine the antibody binding using Fortessa (BD Bioscience).
(§5) The experiments were conducted using assays described above. 20 antibodies were characterized further based on their binding to human DCs, cyno DCs, Raji cells and HEK-Blue™ CD40L cells.

[5] = target: T3, Full length human CD40 (huCD40) on cells; test: flow cytometry, Raji cells
cyno CD40 (SPR analyte) [6] = target: T1, cyno CD40 (SPR analyte); test: SPR ProteOn XPR36, mAb captured by anti-human IgG Fc, cyno CD40 as analyte, 25 C
Procedure: as §1, §2

[7] = target: T2, Macaca fascicularis (cyno) CD40 (cCD40) …; test: flow cytometry, cyno mature DCs
Procedure: as §4, §5

cyno CD40 (SPR analyte) [8] = target: T1, cyno CD40 (SPR analyte); test: SPR ProteOn XPR36, mAb captured, cyno CD40 as analyte, 25 C; did not fit well to 1:1 model
Procedure: as §1, §2, §3

Binder	B cells EC50, CD23 surface expression, with cross-linker [1]	B cells EC50, CD80 surface expression, with cross-linker [1]	B cells EC50, CD83 surface expression, with cross-linker [1]	B cells EC50, CD86 surface expression, with cross-linker [1]	B cells EC50, HLA-DR surface expression, with cross-linker [1]	DC EC50, CD80 surface expression, with cross-linker [2]	DC EC50, CD83 surface expression, with cross-linker [2]	DC EC50, CD86 surface expression, with cross-linker [2]	Kd (human CD40 (SPR analyte))	koff (human CD40 (SPR analyte))	kon (human CD40 (SPR analyte))	EC50 [3]	EC50 [4]	EC50 [5]	Kd (cyno CD40 (SPR analyte) [6])	koff (cyno CD40 (SPR analyte) [6])	kon (cyno CD40 (SPR analyte) [6])	EC50 [7]	Kd (cyno CD40 (SPR analyte) [8])	DC EC50, HLA-DR surface expression, with cross-linker [2]	also measured
B1	1.95 ng/mL	0.879 ng/mL	0.838 ng/mL	4.57 ng/mL	1.57 ng/mL	36 ng/mL	306 ng/mL	33 ng/mL	0.0294 nM	8.06e-05 s⁻¹	2.74e+06 M⁻¹ s⁻¹	75.1 ng/mL	127 ng/mL	73.9 ng/mL	0.0368 nM	0.000157 s⁻¹	4.27e+06 M⁻¹ s⁻¹	53.7 ng/mL	–	–	–
B2	6.94 ng/mL	0.0167 ng/mL	0.581 ng/mL	1.26 ng/mL	0.00966 ng/mL	70.5 ng/mL	0.962 ng/mL	258 ng/mL	1.21 nM	0.000641 s⁻¹	528000 M⁻¹ s⁻¹	84.9 ng/mL	99.6 ng/mL	39.6 ng/mL	–	–	–	30.9 ng/mL	0.412 nM	154 ng/mL	koff (cyno CD40 (SPR analyte) [8]): 0.000307 s⁻¹; kon (cyno CD40 (SPR analyte) [8]): 746000 M⁻¹ s⁻¹
B3	41.4 ng/mL	5.11 ng/mL	1.82 ng/mL	2.46 ng/mL	1.08 ng/mL	158 ng/mL	175 ng/mL	423 ng/mL	3.05 nM	0.00116 s⁻¹	378000 M⁻¹ s⁻¹	169 ng/mL	202 ng/mL	73 ng/mL	1.64 nM	0.000577 s⁻¹	352000 M⁻¹ s⁻¹	48.3 ng/mL	–	39.4 ng/mL	–
B4	12.5 ng/mL	1.54 ng/mL	1.26 ng/mL	1.14 ng/mL	0.356 ng/mL	602 ng/mL	218 ng/mL	381 ng/mL	13.1 nM	0.00247 s⁻¹	189000 M⁻¹ s⁻¹	228 ng/mL	329 ng/mL	99.4 ng/mL	–	–	–	71.6 ng/mL	2.64 nM	60.4 ng/mL	koff (cyno CD40 (SPR analyte) [8]): 0.000908 s⁻¹; kon (cyno CD40 (SPR analyte) [8]): 343000 M⁻¹ s⁻¹
